± gives the standard deviation.
Experiment: protein stability index of a GFP-peptide fusion (GPS, HEK-293T) (PSI 1-6); higher = more stable
[1] = treatment: DMSO, c terminus: a fixed tail appended
[2] = treatment: MLN4924 1 uM, 8 h, c terminus: a fixed tail appended
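Further: 24-mer peptide tiles fused after GFP, lentivirally expressed, FACS-sorted into six equal bins by GFP/DsRed ratio, decoded by Illumina sequencing, PSI is the read-weighted mean bin number.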

Sequence	protein stability index [1]	protein stability index [2]	protein stability index (treatment: DMSO, c terminus: native)	protein stability index (treatment: MLN4924 1 uM, 8 h, c terminus: native)
PGGITSHQLLGLFPSTSYNARLQA [TNXB]	2.98 ± 0.084	3.02 ± 0.085		
SGTMGAAKVTGEVLDILTRLPESV [FLOT1]	3.64 ± 0.38	3.71 ± 0.24		
CLSRHSINPYSNRESRILFSTWNL [DFFB]	2.28 ± 0.27	2.15 ± 0.3		
FNLFCQKRFDESMQVFAKLGTDPT [VPS39]	2.68 ± 0.36	2.68 ± 0.11		
SLKQALKGLSVEFALLADKAAQQG [SNX8]	2.32 ± 0.18	2.52 ± 0.31		
NARRRLKKENKMTWAPKNKGGEER [IRX6]	4.51 ± 0.27	4.63 ± 0.098		
HYICPRLGGIGFSSCIVCLFVGLY [SLC6A17]	2.39 ± 0.54	2.3 ± 0.21		
SHSKAPSGSQMSHNAVTSHQRPGW [NCF4]	3.88 ± 0.23	4.05 ± 0.22		
TNVKFLAITTDCLQILAYGNQESK [CTNNB1]	2 ± 0.2	2.17 ± 0.16		
PSNTGSRTTSVRCRGIPRGPVRPA [NEK8]	3.89 ± 0.089	4 ± 0.17		
TSFFDSDEDDSTSRFSSSTEQSSA [DVL3]	5.34 ± 0.085	5.25 ± 0.22		
KQAKVVARRESGGRPIKPPKKDLE [BRD3]	5.08 ± 0.27	5.05 ± 0.24		
NVQTEFPGEDENPEKASELSQVEL [TRIM55]	5.48 ± 0.35	5.57 ± 0.3		
WTHDGIDINNNFPDLNTLLWEAED [CPXM2]	3.44 ± 0.098	3.8 ± 0.45		
ELVVIIGWAKHIPGFSTLSLADQM [ESRRG]	3.19 ± 0.31	2.67 ± 0.77		
PVNALVSHLLVVEPEKLYAMPDPA [ESRRA]	2.88 ± 0.24	2.92 ± 0.27		
WEISWPLEQRGTHAVVGVATALAP [SPSB2]	2.44 ± 0.26	2.73 ± 0.36		
TECEPSELFQLQTYSLPPFLKAVL [CDS1]	2.65 ± 0.22	2.56 ± 0.22		
SFVYVNPEDGRIFAQRTFDYELLQ [PCDHGC5]	2.2 ± 0.26	2.56 ± 0.28		
LQQQPLCTSVNTIYDNAVQGLRRH [LRRC59]	3.66 ± 0.091	3.83 ± 0.13		
TPLEPDAKDLPCDSKPESALGAPS [TBX5]	5.41 ± 0.29	5.36 ± 0.23		
KLSGFMSKLVPAIQNAHKNSTGSG [TPRG1]	2.72 ± 0.2	3.03 ± 0.23		
ARLMRSNYPPPLSSAALRGAGPTR [C6orf223]	3.79 ± 0.2	3.96 ± 0.14		

Sequence	protein stability index [1]	protein stability index [2]	protein stability index (treatment: DMSO, c terminus: native)	protein stability index (treatment: MLN4924 1 uM, 8 h, c terminus: native)
EFMKDRLYFATLRNRPKSTVNTHY [CDC14A]	2.11 ± 0.23	2.17 ± 0.59		
LSPEVLNKQGHGCESDIWALGCVM [PLK2]	2.09 ± 0.15	2.14 ± 0.29		
GSGQNEESPRKRKKATEAIDSLRK [FBXO28]	5.11 ± 0.2	5.17 ± 0.2		
GRCTVRDFIHRHCQDQNVPVENFF [SDE2]	2.51 ± 0.4	2.72 ± 0.049		
LSSTLLSFSTAIGRTCITDLQLTV [MFSD9]	3.11 ± 0.17	3.18 ± 0.39		
CISDELLENLCENASTLRTINIKC [FBXO39]	2.47 ± 0.2	2.69 ± 0.28		
AGMGKVTSASFGEESTPGQTNSET [HDAC6]	5.3 ± 0.29	5.25 ± 0.1		
GTARYMSINTHLGKEQSRRDDLEA [CSNK1G3]	4.75 ± 0.42	4.63 ± 0.16		
LSKILAKLERLKQQNEDLRRMAES [FUT8]	2.9 ± 0.22	3.12 ± 0.24		
ELIKWRAAIVVNGHGMTPLKVAAE [FEM1B]	2.64 ± 0.55	2.15 ± 0.33		
LVTYTNRYIIFKRNTLNQPCSGSV [GMCL1]	2.29 ± 0.24	2.07 ± 0.2		
RAKFKRKYKVKLVEKRAFREIQL [NOP53]			2.56 ± 0.36	2.79 ± 0.17
IALYFVSKKFKNCFQSCLCCCCYQ [EDNRA]	3.19 ± 1.1	2.13 ± 1.4		
SSGAGSSPPAAPCPPPPGPAAAPE [ZBED3]	5.36 ± 0.24	5.35 ± 0.085		
PDEANVGKHPKDKTEDENKQSFLD [TOR1AIP2]	5.42 ± 0.21	5.75 ± 0.2		
FDPLRNEYFFDRNRPSFDAILYYY [KCNA1]	2.68 ± 0.45	2.73 ± 0.48		
GYRTSAVASGLQFDVETRHVFIGD [WDFY2]	2.86 ± 0.31	3.15 ± 0.36		
VGTESQGRDWRHLPTITSELSGAP [PXN]	4.21 ± 0.23	4.21 ± 0.2		
RGPSPVVLGSQDALPIATAFTEYV [FCHO1]	3.14 ± 0.39	3.18 ± 0.3		
NLRKQLETLSGDRVRLDSELRNVQ [KRT71]	3.69 ± 0.08	3.74 ± 0.15		
LLLLFGVAGGLVACRVTELQQQPL [LRRC59]	2.77 ± 0.2	3.46 ± 0.55		
DFKNPIIEKYLRRQLTKPRPVILD [OAS1]	2.46 ± 0.11	2.36 ± 0.2		
HVDPEEPWSPCSARFITDFLDNGY [ADAMTS4]	2.57 ± 0.39	2.88 ± 0.71		

Sequence	protein stability index [1]	protein stability index [2]	protein stability index (treatment: DMSO, c terminus: native)	protein stability index (treatment: MLN4924 1 uM, 8 h, c terminus: native)
AAGYIQCMHEVHTFVSTCQAIDAT [HES6]	1.93 ± 0.6	2.12 ± 0.37		
NARRKLKGAILTTMLATRNFSAAK [CAMK2B]	3.08 ± 0.33	3.15 ± 0.36		
LQSSKNSYSFQNPSSFDPSMLLQR [RNF180]	2.9 ± 0.27	3.3 ± 0.17		
KASSRKPFGILSPNVLCSMSGKSP [FBXO34]	2.83 ± 0.095	3 ± 0.27		
PMENLEKQLICPICLEMFTKPVVI [TRIM63]	2.43 ± 0.089	2.38 ± 0.36		
LITKNHSQEETSILRCWKCRKCIA [RNF180]	2.48 ± 0.44	2.98 ± 0.58		
NLTSNEGHSLKNLEHRLNEMERTQ [RASAL3]	4.28 ± 0.32	4.26 ± 0.25		
SLQRWEHLKKVASRYQNNIKNDKY [PRIM1]	2.47 ± 0.25	2.91 ± 0.56		
FHYIIEQGVCYLVLCEAAFPKKLA [SEC22B]	3.01 ± 0.71	2.68 ± 0.63		
KEKLQKCLEPLEQKLQEITRCKSS [TRIM39]	4.38 ± 0.22	4.44 ± 0.4		
LRITSGVVVCQCGLSIPSHSSELT [RPAIN]	2.56 ± 0.65	2.48 ± 0.57		
QRLPRSAPPGSLVTKVTAVDADAG [PCDHGC5]	4.76 ± 0.21	4.82 ± 0.3		
PFPLGASAQNGLASSLPAEVHSLT [PLAGL1]	3.94 ± 0.089	4.09 ± 0.16		
ALRKTGQYSGMLDCARRILAREGV [SLC25A25]	2.29 ± 0.18	2.27 ± 0.15		
VACGMVHLLIPELGACVAPGGNLI [DNAAF3]	2.78 ± 0.27	3.11 ± 0.26		
IGWFPSNYVLEEVDEAAAESPSFL [NCK2]	3.93 ± 0.24	4.13 ± 0.23		
SPEARDARSPSGPSGSLENGTKAD [TRIM29]	5.36 ± 0.44	5.61 ± 0.18		
YLRYVRRLDFFEKPDYEYLRTLFT [CSNK1G1]	2.34 ± 0.48	2.24 ± 0.38		
TFQNSVFVATFLRYAVVLNATWLV [SCD]	3.01 ± 0.34	3.43 ± 0.43		
SLLVLIEPVAAGSGIPEVKCYLNG [CLCN6]	1.99 ± 0.92	2.44 ± 0.43		
TADISSHFQEAIDFIDCVREKGGK [DUSP5]	4.4 ± 0.26	4.7 ± 0.22		
IIALIALSVGQYNCPGQYTFSMPS [CD69]	3.51 ± 0.45	3.3 ± 0.48		
LLAAGANVHATTATGDTALTYACE [ANKRD17]	4.13 ± 0.2	3.9 ± 0.23		

Sequence	protein stability index [1]	protein stability index [2]	protein stability index (treatment: DMSO, c terminus: native)	protein stability index (treatment: MLN4924 1 uM, 8 h, c terminus: native)
EALITDPDEMRMQALLIRERILGP [FEM1A]	3.56 ± 0.26	3.45 ± 0.26		
MTTLTHRARRTEISKNSEKKMESE [GOLPH3L]	5 ± 0.55	5.07 ± 0.18		
IEMFKSITHSTVGSKGEKDLGASS [EHMT1]	4.23 ± 0.15	3.85 ± 0.36		
AKVLTLSDDLERTIEERVNILFDF [EIF5]	2.33 ± 0.36	2.4 ± 0.21		
MARLQEEHGDQLLSIRCQHQEQVE [MTUS2]	4.85 ± 0.38	4.96 ± 0.11		
QAAKQIKDGVTMAPAFRLSLKAKV [FSD1]	3 ± 0.23	3.02 ± 0.33		
KHERTHEIIPINVNNNYEHRHTSH [SPRY1]	3.68 ± 0.37	3.91 ± 0.34		
SRLWDSRLRHYLGSRYDARRGVSD [DNAAF3]	3.09 ± 0.33	3.23 ± 0.18		
RDKILTATIENNRVILEIDNARLA [KRT13]	2.69 ± 0.29	2.83 ± 0.33		
AFHDGQRSRLRPRDDLDRLGVFLD [TRIM14]	3.35 ± 0.26	3.66 ± 0.31		
DPDEVARRWGKRKNKPKMNYEKLS [ETS1]	4.51 ± 0.24	4.22 ± 0.35		
LYIFATCLGLSYDGLLGDNQIMPK [MAGEA3]	2.92 ± 0.34	2.78 ± 0.52		
LGVFLDYEAGVLAFYDVTGGMSHL [TRIM14]	2.83 ± 0.5	2.98 ± 0.82		
SNHVDDFTTFRGTELSFLVTTHQP [EDNRA]	2.61 ± 0.4	2.8 ± 0.4		
LDLSKPNDLWPTMENLLQATKSHV [DYNC2LI1]	3.06 ± 0.28	3 ± 0.19		
FRIILGDFDYNAIDNANRILGPAY [PKD2L1]	2.74 ± 0.55	2.62 ± 0.55		
PVCADLQAKILQCYRENTHQTLKC [CHCHD3]	3.02 ± 0.23	3 ± 0.25		
DIDQMFSTLLGEMDLLTQSLGVDT [APBB1IP]	3.16 ± 0.5	2.76 ± 0.41		
DALISVSYTIITPLFNPMIYSLRN [OR10K2]	4.18 ± 0.26	3.35 ± 0.75		
FACPSQALFFKNIMNIIDIVSILP [KCNA4]	3.02 ± 0.073	2.85 ± 0.27		

Source: the supplement of paper PMC10567573
